Laboratory results published in patent US20230399641A1 (SHANGHAITECH UNIVERSITY, published 2023).

Target: T1, receptor binding domain (RBD) of wildtype SARS-CoV-2 spike (residues 319-541) (SARS-CoV-2, UniProt P0DTC2 319-541)
T1 construct: range 319-541
Assay: SPR, purified ACE2 protein on purified RBD of SARS-CoV-2 spike

B1: purified human ACE2 mutant Q24del (receptor)
chain: STIEEAKTFLDKFNHEAEDLFYQSSLASWNYNTNITEENVQNMNNAGDKWSAFLKEQSTLAQMYPLQEIQNLTVKLQLQALQQNGSSVLSEDKSKRLNTILNTMSTIYSTGKVCNPDNPQECLLLEPGLNEIMANSLDYNERLWAWESWRSEVGKQLRPLYEEYVVLKNEMARANHYEDYGDYWRGDYEVNGVDGYDYSRGQLIEDVEHTFEEIKPLYEHLHAYVRAKLMNAYPSYISPIGCLPAHLLGDMWGRFWTNLYSLTVPFGQKPNIDVTDAMVDQAWDAQRIFKEAEKFFVSVGLPNMTQGFWENSMLTDPGNVQKAVCHPTAWDLGKGDFRILMCTKVTMDDFLTAHHEMGHIQYDMAYAAQPFLLRNGANEGFHEAVGEIMSLSAATPKHLKSIGLLSPDFQEDNETEINFLLKQALTIVGTLPFTYMLEKWRWMVFKGEIPKDQWMKKWWEMKREIVGVVEPVPHDETYCDPASLFHVSNDYSFIRYYTRTLYQFQFQEALCQAAKHEGPLHKCDISNSTEAGQKLFNMLRLGKSEPWTLALENVVGAKNMNVRPLLNYFEPLFTWLKDQNKNSFVGWSTDWSPYAD
Binder B1 has a Kd of 416 nM.
